Reference: patent publication US20110110856A1 (SIGNALOMICS, published 2011)
Where a chain is given by its changes, count along the chain named. In names and notes the source's numbering stands.

T1: N-terminal domain of CEA (Homo sapiens (Human), UniProt P06731 35-144)
T1 construct: Target of the yeast two-hybrid screens; synthetic gene, codon-optimised for S. cerevisiae, cloned into a yeast TH vector; The fusion partner of the vector is not described; also called N-CEA; CEACAM5
T1 sequence: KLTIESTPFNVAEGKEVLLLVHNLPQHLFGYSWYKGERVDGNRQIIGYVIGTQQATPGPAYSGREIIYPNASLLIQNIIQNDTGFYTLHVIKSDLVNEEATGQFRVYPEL

B1: DraE T88M (N77K) I111H (ligand)
chain: GFTPSGTTGTTKLTVTEECQVRVGDLTVAKTRGQLTDAAPIGPVTVQALGCDARQVALKADTDNFEQGKFFLISDNKRDKLYVNIRPMDNSAWTTDNGVFYKNDVGSWGGHIGIYVDGQQTNTPPGNYTLTLTGGYWAK
B2: DraE T88M Q34L N84S (ligand)
chain: B1 chain with Q34L, N84S, H111I
B3: DraE T88M G118S I85L (ligand)
chain: B1 chain with I85L, H111I, G118S
B4: combined mutant T95E T123I (on DraE T88M N77K) (ligand)
chain: B1 chain with T95E, H111I, T123I
notes: also called T95E T1231
B5: combined mutant F100S T11I D37G (on DraE T88M N77K) (ligand)
chain: B1 chain with T11I, D37G, F100S, H111I
notes: also called F1005 T11I D37G
B6: combination mutant F100I T123I (on DraE T88M N77K) (ligand)
chain: B1 chain with F100I, H111I, T123I

Target: T1, N-terminal domain of CEA
Experiment: yeast two-hybrid screen against N-CEA

Binder | binding result
B1 | binds

Target: T1, N-terminal domain of CEA
Experiment: yeast two-hybrid, FDG rescreening

Binder | binding result
B2 | binds
B3 | binds
B4 | binds
B5 | binds
B6 | binds
